From PMC10242635

T1: FXR-DBD (human, UniProt Q96RI1-1 117-217)
T1 sequence: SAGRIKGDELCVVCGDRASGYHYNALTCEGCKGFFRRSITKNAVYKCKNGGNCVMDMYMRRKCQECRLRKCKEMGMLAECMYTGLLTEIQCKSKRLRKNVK


How the values were obtained:
FXR-DBD;RXR-DBD [1] = molecular target: T2, FXR-DBD;RXR-DBD (human;human, UniProt Q96RI1-1;P19793 117-217;130-212, |); assay: fluorescence polarization
FXR-DBD = molecular target: T1, FXR-DBD; assay: fluorescence polarization
FXR-DBD;RXR-DBD [2] = molecular target: T2, FXR-DBD;RXR-DBD; assay: X-ray crystallography

T2 sequence (P19793 130-212, one chain of several): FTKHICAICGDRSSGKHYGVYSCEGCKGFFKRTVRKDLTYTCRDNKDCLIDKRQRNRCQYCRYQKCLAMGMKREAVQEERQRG

Binder	Kd (FXR-DBD;RXR-DBD [1])	Kd (FXR-DBD)	binding result (FXR-DBD;RXR-DBD [2])
IR1 (FPA) (dsDNA) DNA 1: CCGAGGTCAATGACCTCG DNA 2: CGAGGTCATTGACCTCGG	~0.054 µM	0.095 µM	–
IR1 (crystal) (dsDNA) DNA 1: CCGAGGTCAATGACCTCG DNA 2: CCGAGGTCATTGACCTCG	–	–	binds
